Assay results from US8247168B2, “Regulation of gene expression by protein methylation” (University of Southern California, priority 1998, dated 2012).

Key:
[1] = tested on: hnRNPA1; assay: Methylation of hnRNP A1, SDS-PAGE and fluorography (FIG. 8C); assay type: biochemical, human; conditions: 0.083 mg/ml hnRNP-A1
Protocol: CARM1 and PRMT1 have different protein methyltransferase substrate specificities. CARM1 methylates histone H3, whereas PRMT1 methylates histone H4. […] (A,B) Calf thymus histones (Boehringer Mannheim) were incubated for 30 min at 30° C. in 32.5 μl reactions containing 20 mM Tris-Cl, 0.2 M NaCl, 4 mM EDTA, pH 8.0, 0.32 mg/ml individual histone (2a, 2b, 3, or 4) or 1.3 mg/ml mixed histone (M), 0.037 mg/ml GST-CARM1 or GST-PRMT1, and 7 μM S-adenosyl-L-[methyl-^3H]methionine (specific activity of 14.7 Ci/mmol). Reactions were stopped by addition of SDS-NuPAGE sample buffer (Novex), and 40% of each stopped reaction was then subjected to SDS-PAGE in 4-12% NuPAGE Bis-Tris gradient gels (Novex) using the Na-MES running buffer. Gels were stained with Coomassie Blue R-250 (A), and then subjected to fluorography (Chamberlin, M. (1978) Anal. Biochem. 98:132) for 12 h at −70° C. on sensitized Kodak XAR-5 film (B). Molecular weight markers (MW) are shown at left. Concentrations of GST fusion proteins were determined in comparison with bovine serum albumin standards (Sigma) by SDS polyacrylamide gel electrophoresis and Coomassie Blue staining; it was assumed that bovine serum albumin stained twice as intensely as most other proteins. Concentrations of histones and hnRNP A1 were determined by the method of Lowry (Lowry, O. H. et al. (1951) J. Biol. Chem. 193:265). […]

[2] = biological target: T1, Gal4 DBD-GRIP1c (Mus musculus, UniProt Q61026); assay: Reporter gene activation by Gal4 DBD-GRIP1c in transiently transfected CV-1 cells; assay type: cell-based; conditions: co-expression with Gal4 DBD-GRIP1c, dose-dependent
T1 construct: coding for Gal4 DBD-GRIP1c where GRIP1c is GRIP1 amino acids 1121-1462; expressed in transfected cells; host or cells: CV-1 cells
Protocol: A) CV-1 cells in 6-well dishes (3.3 cm diameter well) were transiently transfected with 0.5 of μg pM.GRIP1c (coding for Gal4 DBD-GRIP1c where GRIP1c is GRIP1 amino acids 1121-1462), 0.5 μg of GK1 reporter gene (luciferase gene controlled by Gal4 binding sites) (Webb, P. et al., (1998) Mol. Endocrinol. 12:1605), and 0-0.8 μg of pSG5.HA-CARM1, using Superfectin (Qiagen) according to manufacturer's protocol. Total DNA was adjusted to 2.0 μg per well with the appropriate amount of pSG5. Cell extracts were prepared approximately 48 h after transfection and assayed with Promega Luciferase Assay kit. Relative light units of luciferase activity presented are the mean and standard deviation of three transfected wells. B) CV-1 cells were transfected as in A with the indicated amount of pM.GRIP1c and zero or 0.5 μg of pSG5.HA-CARM1.
In transient transfections of CV-1 cells, Gal4 DBD-GRIP1c weakly activates expression of a reporter gene with a promoter containing Gal4 binding sites; co-expression of CARM1 enhances reporter gene activity in a dose-dependent manner and provides a maximum stimulation of more than 10-fold (FIG. 5). CARM1 expression has little if any effect on the activity of Gal4DBD alone (FIG. 6A). CARM1 also enhances the activity of full length GRIP1 fused to Gal4DBD.

- maximum stimulation of reporter gene activity [2]: more than 10 fold
B1: CARM1: novel murine protein arginine methyltransferase and transcriptional coactivator, 608 amino acids (protein, listed as Mus musculus)
chain: MAAAAATAVGPGAGSAGVAGPGGAGPCATVSVFPGARLLTIGDANGEIQRHAEQQALRLEVRAGPDAAGIALYSHEDVCVFKCSVSRETECSRVGRQSFIITLGCNSVLIQFATPHDFCSFYNILKTCRGHTLERSVFSERTEESSAVQYFQFYGYLSQQQNMMQDYVRTGTYQRAILQNHTDFKDKIVLDVGCGSGILSFFAAQAGARKIYAVEASTMAQHAEVLVKSNNLTDRIVVIPGKVEEVSLPEQVDIIISEPMGYMLFNERMLESYLHAKKYLKPSGNMFPTIGDVHLAPFTDEQLYMEQFTKANFRYQPSFHGVDLSALRGAAVDEYFRQPVVDTFDIRILMAKSVKYTVNFLEAKEGDLHRIEIPFKFHMLHSGLVHGLAFWFDVAFIGSIMTVWLSTAPTEPLTHWYQVRCLFQSPLFAKAGDTLSGTCLLIANKRQSYDISIVAQVDQTGSKSSNLLDLKNPFFRYTGTTPSPPPGSHYTSPSENMWNTGSTYNLSSGVAVAGMPTAYDLSSVIAGGSSVGHNNLIPLANTGIVNHTHSRMGSIMSTGIVQGSSGAQGGGGSSSAHYAVNNQFTMGGPAISMASPMSIPTNTMHYGS
- methylation of hnRNPA1 [1]: not methylated
